First the molecules themselves.
T1: LRRC15 (leucine-rich repeat-containing protein 15) (human, UniProt Q8TF66 22-538, limits assumed)
T1 construct: The KD sentences say only 'LRRC15'; also called human LRRC15
T1 sequence (looked up): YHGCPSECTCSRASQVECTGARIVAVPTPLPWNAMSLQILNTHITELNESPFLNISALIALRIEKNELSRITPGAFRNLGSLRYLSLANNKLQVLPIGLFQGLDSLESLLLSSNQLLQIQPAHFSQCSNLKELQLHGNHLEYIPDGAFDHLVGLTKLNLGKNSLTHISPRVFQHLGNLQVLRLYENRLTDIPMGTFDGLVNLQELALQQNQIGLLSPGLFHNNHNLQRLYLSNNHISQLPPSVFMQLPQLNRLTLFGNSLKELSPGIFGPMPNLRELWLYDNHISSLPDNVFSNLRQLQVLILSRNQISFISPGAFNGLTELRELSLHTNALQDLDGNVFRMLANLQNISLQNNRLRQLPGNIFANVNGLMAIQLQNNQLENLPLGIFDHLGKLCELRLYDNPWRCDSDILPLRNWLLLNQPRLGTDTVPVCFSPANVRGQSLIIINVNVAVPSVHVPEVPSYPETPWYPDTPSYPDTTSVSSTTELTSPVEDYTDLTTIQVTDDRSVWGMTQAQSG

B1: hzJ48 VHv3 / hzJ48 VLv1.1 (N92S) (antibody, V domains shown)
VH: QVQLVQSGAEVKKPGASVKVSCKASGYTFTDYYINWVRQAPGQGLEWMGWIYPGSGNTKYAQKFQGRVTMTRDTSTSTVYMELSSLRSEDTAVYYCARWGYGAYFTYWGQGTLVTVSS
VL: DIQMTQSPSSLSASVGDRVTITCKASQNVGINVAWYQQKPGKAPKLLIYSASYRSSGVPSRFSGSGSGTDFTLTISSLQPEDFATYYCQQYSSFPYTFGGGTKVEIK
notes: Human IgG1 or IgG1null and human kappa constant regions
B2: hzJ48 VHv3 / hzJ48 VLv1.3 (S93A) (antibody, V domains shown)
VH: QVQLVQSGAEVKKPGASVKVSCKASGYTFTDYYINWVRQAPGQGLEWMGWIYPGSGNTKYAQKFQGRVTMTRDTSTSTVYMELSSLRSEDTAVYYCARWGYGAYFTYWGQGTLVTVSS
VL: DIQMTQSPSSLSASVGDRVTITCKASQNVGINVAWYQQKPGKAPKLLIYSASYRSSGVPSRFSGSGSGTDFTLTISSLQPEDFATYYCQQYNAFPYTFGGGTKVEIK
notes: as for B1
B3: hzJ48 VHv3 / hzJ48 VLv1.2 (N92Q) (antibody, V domains shown)
VH: QVQLVQSGAEVKKPGASVKVSCKASGYTFTDYYINWVRQAPGQGLEWMGWIYPGSGNTKYAQKFQGRVTMTRDTSTSTVYMELSSLRSEDTAVYYCARWGYGAYFTYWGQGTLVTVSS
VL: DIQMTQSPSSLSASVGDRVTITCKASQNVGINVAWYQQKPGKAPKLLIYSASYRSSGVPSRFSGSGSGTDFTLTISSLQPEDFATYYCQQYQSFPYTFGGGTKVEIK
notes: as for B1
B4: hzF36 VHv6.2 (D54Q) / hzF36 VLv1 (antibody, V domains shown)
VH: QVQLVQSGAEVKKPGASVKVSCKASGYTFTSFVIHWVRQAPGQGLEWMGYIYNQGTKYNERFRGRATLTSDKSTSTVYMELSSLRSEDTAVYYCARDYYFDYWGQGTLVTVSS
VL: DIVMTQSPDSLAVSLGERATINCRASESVDYYGISFMNWYQQKPGQPPKLLIYAASNQGSGVPDRFSGSGSGTDFTLTISSLQAEDVAVYYCQQSKEVPYTFGGGTKVEIK
B5: hzF36 VHv6.4 (G55A) / hzF36 VLv1 (antibody, V domains shown)
VH: QVQLVQSGAEVKKPGASVKVSCKASGYTFTSFVIHWVRQAPGQGLEWMGYIYNDATKYNERFRGRATLTSDKSTSTVYMELSSLRSEDTAVYYCARDYYFDYWGQGTLVTVSS
VL: DIVMTQSPDSLAVSLGERATINCRASESVDYYGISFMNWYQQKPGQPPKLLIYAASNQGSGVPDRFSGSGSGTDFTLTISSLQAEDVAVYYCQQSKEVPYTFGGGTKVEIK
B6: hzF36 VHv6 / hzF36 VLv1.1 (M4L) (antibody, V domains shown)
VH: QVQLVQSGAEVKKPGASVKVSCKASGYTFTSFVIHWVRQAPGQGLEWMGYIYNDGTKYNERFRGRATLTSDKSTSTVYMELSSLRSEDTAVYYCARDYYFDYWGQGTLVTVSS
VL: DIVLTQSPDSLAVSLGERATINCRASESVDYYGISFMNWYQQKPGQPPKLLIYAASNQGSGVPDRFSGSGSGTDFTLTISSLQAEDVAVYYCQQSKEVPYTFGGGTKVEIK
notes: also called parent heavy chain hzF36 VHv6 in combination with light chain hzF36 VLv1.1
B7: hzJ66 VHv2 (M102L) / hzJ66 VLv1 (antibody, V domains shown)
VH: QVQLVQSGAEVKKPGASVKVSCKASGYTFTNYWIGWVRQAPGQGLEWMGDIYPRSGYTNYNEKFKGRVTMTRDTSTSTVYMELSSLRSEDTAVYYCARSGGLYYFDYWGQGTTVTVSS
VL: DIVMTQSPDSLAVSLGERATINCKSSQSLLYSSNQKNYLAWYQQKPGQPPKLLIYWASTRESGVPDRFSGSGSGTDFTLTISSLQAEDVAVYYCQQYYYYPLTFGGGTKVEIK
notes: also called printed as heavy chain variant hzJ66 VLv2 with light chain hzJ66 VHv1
B8: hzJ66 VHv2 (M102L) / hzJ66 VLv1.1 (N22S) (antibody, V domains shown)
VH: QVQLVQSGAEVKKPGASVKVSCKASGYTFTNYWIGWVRQAPGQGLEWMGDIYPRSGYTNYNEKFKGRVTMTRDTSTSTVYMELSSLRSEDTAVYYCARSGGLYYFDYWGQGTTVTVSS
VL: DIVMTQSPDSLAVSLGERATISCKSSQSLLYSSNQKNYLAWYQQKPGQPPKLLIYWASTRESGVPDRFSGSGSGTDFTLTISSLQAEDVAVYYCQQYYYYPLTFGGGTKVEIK
notes: also called printed as heavy chain variant hzJ66 VLv2 with light chain hzJ66 v1.1
B9: hzK713 VHv1 / hzK713 VLv1 (antibody, V domains shown)
VH: QVQLVQSGAEVKKPGASVKVSCKASGYTFTDYYMNWVRQAPGQRLEWMGRVSPSNGGTNYNQKFRGRVTITRDTSASTAYMELSSLRSEDTAVYYCARRGAGYSYYAMDYWGQGTTVTVSS
VL: DIVMTQSPDSLAVSLGERATINCRASESVDSYGNSLMYWYQQKPGQPPKLLIYLASNLESGVPDRFSGSGSGTDFTLTISSLQAEDVAVYYCQQNNEDPLTFGGGTKVEIK
notes: Expressed in CHO cells; also called parent antibody comprising hzK713 VLv1 in combination with heavy chain hzK713 VHv1
B10: hzK713 VHv2 (N55Q) / hzK713 VLv1 (antibody, V domains shown)
VH: QVQLVQSGAEVKKPGASVKVSCKASGYTFTDYYMNWVRQAPGQRLEWMGRVSPSQGGTNYNQKFRGRVTITRDTSASTAYMELSSLRSEDTAVYYCARRGAGYSYYAMDYWGQGTTVTVSS
VL: DIVMTQSPDSLAVSLGERATINCRASESVDSYGNSLMYWYQQKPGQPPKLLIYLASNLESGVPDRFSGSGSGTDFTLTISSLQAEDVAVYYCQQNNEDPLTFGGGTKVEIK
notes: The KD sentence prints 'hzJ48 VHv2-v4', read as hzK713 VHv2-v4; also called printed in the KD sentence as hzJ48 VHv2 with hzK713 VLv1
B11: hzK713 VHv4 (G56A) / hzK713 VLv1 (antibody, V domains shown)
VH: QVQLVQSGAEVKKPGASVKVSCKASGYTFTDYYMNWVRQAPGQRLEWMGRVSPSNAGTNYNQKFRGRVTITRDTSASTAYMELSSLRSEDTAVYYCARRGAGYSYYAMDYWGQGTTVTVSS
VL: DIVMTQSPDSLAVSLGERATINCRASESVDSYGNSLMYWYQQKPGQPPKLLIYLASNLESGVPDRFSGSGSGTDFTLTISSLQAEDVAVYYCQQNNEDPLTFGGGTKVEIK
notes: The KD sentence prints 'hzJ48 VHv2-v4', read as hzK713 VHv2-v4; also called printed in the KD sentence as hzJ48 VHv4 with hzK713 VLv1
B12: hzK713 VHv3 (N55S) / hzK713 VLv1 (antibody, V domains shown)
VH: QVQLVQSGAEVKKPGASVKVSCKASGYTFTDYYMNWVRQAPGQRLEWMGRVSPSSGGTNYNQKFRGRVTITRDTSASTAYMELSSLRSEDTAVYYCARRGAGYSYYAMDYWGQGTTVTVSS
VL: DIVMTQSPDSLAVSLGERATINCRASESVDSYGNSLMYWYQQKPGQPPKLLIYLASNLESGVPDRFSGSGSGTDFTLTISSLQAEDVAVYYCQQNNEDPLTFGGGTKVEIK
notes: The KD sentence prints 'hzJ48 VHv2-v4', read as hzK713 VHv2-v4; also called printed in the KD sentence as hzJ48 VHv3 with hzK713 VLv1
B13: hzJ66 VHv1 / hzJ66 VLv1 (antibody, V domains shown)
VH: QVQLVQSGAEVKKPGASVKVSCKASGYTFTNYWIGWVRQAPGQGLEWMGDIYPRSGYTNYNEKFKGRVTMTRDTSTSTVYMELSSLRSEDTAVYYCARSGGMYYFDYWGQGTTVTVSS
VL: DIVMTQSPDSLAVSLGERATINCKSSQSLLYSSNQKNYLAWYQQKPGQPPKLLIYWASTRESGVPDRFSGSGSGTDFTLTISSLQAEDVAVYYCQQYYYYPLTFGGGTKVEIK
notes: The KD sentence says only 'the parent humanized ... antibody'; also called parent humanized antibody (J66)
B14: mAb J66 (mouse) (antibody, V domains shown)
VH: QVQMKESGTELVRPGTSVKMSCKAAGYTFTNYWIGWVKQRPGHGPEWIGDIYPRSGYTNYNEKFKGKATLTADTSSSTAYMQLSSLTSEDSTIYFCARSGGMYYFDYWGQGTTLTVSS
VL: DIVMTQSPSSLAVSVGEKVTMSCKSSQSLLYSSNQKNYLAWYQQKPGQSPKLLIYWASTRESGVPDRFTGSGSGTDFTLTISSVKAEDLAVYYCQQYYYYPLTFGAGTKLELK
notes: From hybridomas of immunized mice; also called parent mouse antibody; Bin A2

Bounds are passed on as bounds.

In general, Kd refers to the free concentration of one partner at which half of the binding sites on the other are occupied at equilibrium, for simple one-to-one binding. The low end stands for higher affinity, the high end for lower affinity.

The first assay deals with T1, LRRC15 (leucine-rich repeat-containing …). The experiment in a line: binding analysis (koff and/or KD) of mAb expressed in CHO cells; method not named.
Regarding B1, binding was put at a Kd of 1.7 nM.

As for B2, the Kd was 0.6 nM. B3 displayed a Kd of 1.6 nM.

Consider B4, for which the Kd came out at 0.34 nM. On the same count and under the same terms, with B5 the figure was 0.32 nM. In turn, B6 had a Kd of 0.33 nM. Still for that read-out and setting: with B7 the figure was below 0.001 nM.

Consider B8, for which the Kd was below 0.001 nM. Turning to B9, binding was characterised by a dissociation constant (Kd) of 0.208 nM. In the case of B10, the Kd is 0.307 nM. As for B11, the affinity, expressed as Kd, was 0.334 nM. B12 came in with a Kd of 0.212 nM.

The target is the same in the next assay. Nature of the assay: binding analysis (koff and/or KD); method not named.
On to B13, for which the Kd is below 1 pM. Consider B14, for which the Kd is below 1 pM.

Source of the values: patent WO2021102332A1 (dated 2021).
